Positions count from the first letter of the chain named. Each block holds one molecule with its values, some of them ahead of it.
Legend:
Type in all cases: biochemical, Z. mays
[1] = system: 4-hydroxyphenylpyruvate dioxygenase (HPPD); experiment: Insensitivity parameter (ON × OFF) and trait fitness (ON × OFF × kcat/KM or × kcat); design: key to ON × OFF / Insensitivity, mesotrione, ON × OFF / Insensitivity, tembotrione, ON × OFF / Insensitivity, topramezone, ON × OFF / Insensitivity, sulcotrione, ON × OFF / Insensitivity, isoxaflutole (DKN), ON × OFF: insensitivity = ON rate ratio × OFF rate ratio (surrogate for KD)
From the text: Because substrate and inhibitors bind in the same site, the high concentration of substrate present may competitively trap the inhibitor and prevent it from binding again. To be sure that improvement in ON rates is being taken into account, the ON and OFF rate ratios were multiplied, creating an “insensitivity parameter” that is a surrogate for KD. KD is expressed as kOFF/kON, but because the ON rate ratio is an inverse parameter (the higher the value of ON rate ratio, the lower the value of the represented phenomenon, kON), it is appropriate to multiply ON and OFF rate ratios rather then divide OFF rate ratio by ON rate ratio. Another parameter, which quantifies the combined catalytic and insensitivity properties of the enzyme is kcat/KM×ON rate ratio×OFF rate ratio, and is termed “trait fitness”. This parameter is intended to have a meaning similar to the commonly used expression kcat/KM×Ki.

[2] = system: 4-hydroxyphenylpyruvate dioxygenase (HPPD); experiment: ON rate ratio: HPPD reaction rate with vs without inhibitor in the 70 to 90 second interval; details: Table 7; tembotrione; combinatorial variants
From the text: (§1) Higher KD (reduced affinity or increased insensitivity) can be attained with a numerically smaller ON rate, a larger OFF rate or both. To detect and quantify changes in kON and kOFF, observations of the time course of an HPPD reaction as inhibitor binds to and inactivates the enzyme (kON), or is released from a pre-formed enzyme-inhibitor complex (kOFF) were used, as shown in FIGS. 13A and 13B. In practice, a quantitative indicator of kON was obtained by monitoring the time courses of HPPD reactions containing 60 or 120 nM HPPD and 100 μM HPP in the presence and absence of 4 μM inhibitor (e.g., mesotrione or tembotrione). The ratio of the reaction rate with inhibitor to that without inhibitor during the 70 to 90 second interval of the reaction was termed the “ON rate ratio”. The smaller the actual kON, the more slowly the HPPD reaction decelerates and the higher the value is for the ON rate ratio. FIGS. 13A and 13B illustrate the contrasting reaction velocity in the 70-90 sec interval for maize wild-type HPPD (FIG. 13A) versus an improved variant (SEQ ID NO:78) (FIG. 13B).

[3] = system: 4-hydroxyphenylpyruvate dioxygenase (HPPD); experiment: Estimate of kcat from initial rate at saturating hydroxyphenylpyruvate without inhibitor (ON rate ratio assay)
From the text: as §1
Thirty nine variants were desensitized to tembotrione compared with the backbone enzyme, Round 7, variant 9070 (SEQ ID NO:2) and all were desensitized compared with maize wild type HPPD (SEQ ID NO:1). Because the assay for ON rate ratio includes an initial rate measurement at saturating hydroxyphenylpyruvate without inhibitor and with known enzyme concentration, an estimate of kcat was available. Taking into account kcat and insensitivity parameters, 30 variants were selected for measurement of substrate saturation kinetic parameters and re-evaluation of insensitivity to tembotrione. The kinetic and insensitivity parameters were determined as described in Example 1, and were multiplied to generate the “trait fitness” parameter. The complete list of variants, i.e., of selected single substitutions in SEQ ID NO:2, analyzed with multiple inhibitors and the results obtained are shown in Table 6. The same set of 30 variants were evaluated for insensitivity to mesotrione, sulcotrione, isoxaflutole (its active diketonitrile form, abbreviated DKN in Table 6) and topramezone.

[4] = system: 4-hydroxyphenylpyruvate dioxygenase (HPPD); experiment: OFF rate ratio: release of inhibitor from pre-formed enzyme-inhibitor complex; details: Table 7; tembotrione; combinatorial variants
Procedure: A quantitative indicator of kOFF can be obtained by observing the time course of an HPPD reaction as inhibitor is released from a pre-formed enzyme-inhibitor complex. HPPD and inhibitor were incubated together at concentrations of 7.2 and 8 μM, respectively. Incubations with the same concentrations of enzyme but no inhibitor were done in parallel. After 1 hr at room temperature, 5 to 10 μl of the enzyme-inhibitor complex was dispensed into the wells of the assay plate. Reactions were started with the addition of 290 to 295 μl of 25 mM Hepes, pH 7, 2 mM ascorbate, 10 μM FeSO4, 100 μM HPP and 50 nM HGD. The reactions were monitored at 320 nm for 12 min. Reaction velocity accelerates as inhibitor is released from the enzyme until a steady state is reached, during which the reaction velocity is constant. The ratio of the steady state rate in mixtures containing herbicidal inhibitor to the initial velocity of mixtures lacking inhibitor is termed the “OFF rate ratio”.
Another parameter to record is the time span required for the reactions with inhibitor to reach the steady state. FIGS. 13C and 13D illustrate the contrasting time span in which maize wild-type HPPD (FIG. 13C) and an improved variant (SEQ ID NO:78) (FIG. 13D) dissociated from mesotrione, as indicated by the accelerating reaction rates. The plateau of absorbance is due to exhaustion of the substrate. With the improved variant, not only was the steady state attained in a shorter time span (80 sec for the variant versus 280 sec for wild type), the velocity attained was twice as high as with wild type, though the enzymes were present at the same concentration (240 nM). This is because a larger fraction of the variant enzyme is free of inhibitor compared to the wild-type enzyme, and the kcat for both is nearly the same, about 220 min^−1.

[5] = Table 7, tembotrione, combinatorial variants
[6] = Table 7, combinatorial variants

B5: P056028-A-09 (protein)
chain: MGPTPTATAAGAAVAAASAAEQAAFRLVGHRNFVRFNPRSDRFQTLAFHHVELWCADAASAAGRFSFALGVPLAARSDLSTGNSAHASLLLRSGSLSLLFTAPYAHGADAATAALPSFSAAAARRFAADHGLAVRAVALRVADAEDAFRASVAAGARKAFGPVDLGRGFRLAEVELYGDVVLRYVSYPDGAAGEPFLPGFEGVASPGAADLGLNRFDHIVGNVPELAPAAAYMAGFTGFHEFAEFTTEDVGTTESGLNSMALANNSENVLLPLNEPVHGTKRRSQIQTFLDHHGGPGVQHIALASDDVLRTLREMRARSAMGGFEFLPPPLSDYYDGVRRCAGDVLTEAQINECQELGVMVDRDDEGVLLQIFTKPVGDRPTFFLEIIQRIGCMEKDEKGQEYQKGGCGGFGKGNFGQLFKSIEDYEKSLEAKQAAAAATAQGS
modifications: Zea mays variant form created by artificial means.
ON × OFF ([1]; Megatable 3, shuffled variants): 0.235
ON × OFF × kcat ([1]; Megatable 3, shuffled variants): 3.26
ON × OFF [1, 5]: 0.235
ON × OFF × kcat [1, 5]: 3.26
ON rate ratio [2]: 0.692
kcat ([3]; Megatable 3, shuffled variants): 0.232 s⁻¹
kcat [3, 6]: 0.232 s⁻¹
OFF rate ratio [4]: 0.339

B7: P056028-A-10 (protein)
chain: B5 chain with K158P, P206Q, N214S, E356K
modifications: Zea mays variant form created by artificial means.
ON × OFF ([1]; Megatable 3, shuffled variants): 0.260
ON × OFF × kcat ([1]; Megatable 3, shuffled variants): 4.35
ON × OFF [1, 5]: 0.260
ON × OFF × kcat [1, 5]: 4.35
ON rate ratio [2]: 0.707
kcat ([3]; Megatable 3, shuffled variants): 0.28 s⁻¹
kcat [3, 6]: 0.28 s⁻¹
OFF rate ratio [4]: 0.367

B8: P056028-A-04 (protein)
chain: B5 chain with K158P, L211Y, N214S, E356R, L385I
modifications: Zea mays variant form created by artificial means.
ON × OFF ([1]; Megatable 3, shuffled variants): 0.096
ON × OFF × kcat ([1]; Megatable 3, shuffled variants): 1.06
ON × OFF [1, 5]: 0.096
ON × OFF × kcat [1, 5]: 1.06
ON rate ratio [2]: 0.724
kcat ([3]; Megatable 3, shuffled variants): 0.185 s⁻¹
kcat [3, 6]: 0.185 s⁻¹
OFF rate ratio [4]: 0.133

B9: P056028-A-07 (protein)
chain: B5 chain with K158P, A191G, P206Q, N214S
modifications: Zea mays variant form created by artificial means.
ON × OFF ([1]; Megatable 3, shuffled variants): 0.239
ON × OFF × kcat ([1]; Megatable 3, shuffled variants): 4.65
ON × OFF [1, 5]: 0.239
ON × OFF × kcat [1, 5]: 4.65
ON rate ratio [2]: 0.726
kcat ([3]; Megatable 3, shuffled variants): 0.325 s⁻¹
kcat [3, 6]: 0.325 s⁻¹
OFF rate ratio [4]: 0.329

B11: P056028-A-11 (protein)
chain: B5 chain with K158P, L211Y, N214S, G417S
modifications: Zea mays variant form created by artificial means.
ON × OFF ([1]; Megatable 3, shuffled variants): 0.258
ON × OFF × kcat ([1]; Megatable 3, shuffled variants): 2.21
ON × OFF [1, 5]: 0.258
ON × OFF × kcat [1, 5]: 2.21
ON rate ratio [2]: 0.706
kcat ([3]; Megatable 3, shuffled variants): 0.143 s⁻¹
kcat [3, 6]: 0.143 s⁻¹
OFF rate ratio [4]: 0.366

B12: P056028-A-05 (protein)
chain: B5 chain with K158P, P206Q, L211Y, N214S, R340K
modifications: Zea mays variant form created by artificial means.
ON × OFF ([1]; Megatable 3, shuffled variants): 0.198
ON × OFF × kcat ([1]; Megatable 3, shuffled variants): 3.50
ON × OFF [1, 5]: 0.198
ON × OFF × kcat [1, 5]: 3.50
ON rate ratio [2]: 0.707
kcat ([3]; Megatable 3, shuffled variants): 0.295 s⁻¹
kcat [3, 6]: 0.295 s⁻¹
OFF rate ratio [4]: 0.280

B13: P056028-A-08 (protein)
chain: B5 chain with K158P, L182M, P206Q, L211Y, N214S, H278R, R340K, A438T
modifications: Zea mays variant form created by artificial means.
ON × OFF ([1]; Megatable 3, shuffled variants): 0.217
ON × OFF × kcat ([1]; Megatable 3, shuffled variants): 5.68
ON × OFF [1, 5]: 0.217
ON × OFF × kcat [1, 5]: 5.68
ON rate ratio [2]: 0.669
kcat ([3]; Megatable 3, shuffled variants): 0.437 s⁻¹
kcat [3, 6]: 0.437 s⁻¹
OFF rate ratio [4]: 0.324

Continued, in another order:

ON × OFF ([1]; Megatable 3, shuffled variants): 0.218
ON × OFF [1, 5]: 0.218
ON rate ratio [2]: 0.718
OFF rate ratio [4]: 0.304
B1: P056028-F-01 (protein)
chain: B5 chain with K158P, A191G, L211Y, N214S, K421R, Q434R
modifications: Zea mays variant form created by artificial means.
ON × OFF × kcat ([1]; Megatable 3, shuffled variants): 6.82
ON × OFF × kcat [1, 5]: 6.82
kcat ([3]; Megatable 3, shuffled variants): 0.522 s⁻¹
kcat [3, 6]: 0.522 s⁻¹

ON × OFF ([1]; Megatable 3, shuffled variants): 0.246
ON × OFF [1, 5]: 0.246
ON rate ratio [2]: 0.681
OFF rate ratio [4]: 0.361
B2: P056028-D-08 (protein)
chain: B5 chain with K158P, A191G, L211Y, N214S, R340K, Q434R
modifications: Zea mays variant form created by artificial means.
ON × OFF × kcat ([1]; Megatable 3, shuffled variants): 6.77
ON × OFF × kcat [1, 5]: 6.77
kcat ([3]; Megatable 3, shuffled variants): 0.458 s⁻¹
kcat [3, 6]: 0.458 s⁻¹

ON × OFF ([1]; Megatable 3, shuffled variants): 0.248
ON × OFF [1, 5]: 0.248
ON rate ratio [2]: 0.761
OFF rate ratio [4]: 0.326
B3: P056028-E-02 (protein)
chain: B5 chain with K158P, P206S, L211Y, N214S
modifications: Zea mays variant form created by artificial means.
ON × OFF × kcat ([1]; Megatable 3, shuffled variants): 5.86
ON × OFF × kcat [1, 5]: 5.86
kcat ([3]; Megatable 3, shuffled variants): 0.393 s⁻¹
kcat [3, 6]: 0.393 s⁻¹

ON × OFF ([1]; Megatable 3, shuffled variants): 0.230
ON × OFF [1, 5]: 0.230
ON rate ratio [2]: 0.742
OFF rate ratio [4]: 0.310
B4: P056028-C-01 (protein)
chain: B5 chain with K158P, P206S, N214S
modifications: Zea mays variant form created by artificial means.
ON × OFF × kcat ([1]; Megatable 3, shuffled variants): 5.95
ON × OFF × kcat [1, 5]: 5.95
kcat ([3]; Megatable 3, shuffled variants): 0.432 s⁻¹
kcat [3, 6]: 0.432 s⁻¹

ON × OFF ([1]; Megatable 3, shuffled variants): 0.273
ON × OFF [1, 5]: 0.273
ON rate ratio [2]: 0.714
OFF rate ratio [4]: 0.382
B6: P056028-C-07 (protein)
chain: B5 chain with K158P, A191G, L211Y, N214S, R340K, E356R, Q434R
modifications: Zea mays variant form created by artificial means.
ON × OFF × kcat ([1]; Megatable 3, shuffled variants): 5.80
ON × OFF × kcat [1, 5]: 5.80
kcat ([3]; Megatable 3, shuffled variants): 0.353 s⁻¹
kcat [3, 6]: 0.353 s⁻¹

ON × OFF ([1]; Megatable 3, shuffled variants): 0.268
ON × OFF [1, 5]: 0.268
ON rate ratio [2]: 0.715
OFF rate ratio [4]: 0.375
B10: P056028-C-05 (protein)
chain: B5 chain with K158P, L211Y, N214S, R340K, E356R
modifications: Zea mays variant form created by artificial means.
ON × OFF × kcat ([1]; Megatable 3, shuffled variants): 5.80
ON × OFF × kcat [1, 5]: 5.80
kcat ([3]; Megatable 3, shuffled variants): 0.362 s⁻¹
kcat [3, 6]: 0.362 s⁻¹
